Reference: US20060263802A1 (CRUCELL HOLLAND B V, published 2006)

Key:
Assay in all cases: PEPSCAN ELISA, looped peptide, 10 ug/ml
[1] = molecular target: looped/cyclic peptide … (rabies virus strain ERA)
[2] = molecular target: looped/cyclic peptide … (rabies virus strain ERA); remark: listed apart in the source
[3] = molecular target: looped/cyclic peptide … (rabies virus strain ERA); remark: listed apart in the source
[4] = molecular target: looped/cyclic peptide … (rabies virus strain ERA); remark: listed apart in the source
[5] = molecular target: looped/cyclic peptide … (rabies virus strain ERA); remark: listed apart in the source
[6] = molecular target: looped/cyclic peptide ADPSTVFKDGDEAED (rabies virus strain ERA)
[7] = molecular target: looped/cyclic peptide … (rabies virus strain ERA); remark: listed apart in the source
[8] = molecular target: looped/cyclic peptide … (rabies virus strain ERA); remark: listed apart in the source
[9] = molecular target: looped/cyclic peptide … (rabies virus strain ERA); remark: listed apart in the source
[10] = molecular target: looped/cyclic peptide … (rabies virus strain ERA); remark: listed apart in the source
[11] = molecular target: looped/cyclic peptide … (rabies virus strain ERA); remark: listed apart in the source
[12] = molecular target: looped/cyclic peptide … (rabies virus strain ERA); remark: listed apart in the source
[13] = molecular target: looped/cyclic peptide … (rabies virus strain ERA); remark: listed apart in the source
[14] = molecular target: looped/cyclic peptide … (rabies virus strain ERA); remark: listed apart in the source
[15] = molecular target: looped/cyclic peptide … (rabies virus strain ERA); remark: listed apart in the source
[16] = molecular target: looped/cyclic peptide … (rabies virus strain ERA); remark: listed apart in the source
[17] = molecular target: looped/cyclic peptide … (rabies virus strain ERA); remark: listed apart in the source
[18] = molecular target: looped/cyclic peptide … (rabies virus strain ERA); remark: listed apart in the source
[19] = molecular target: looped/cyclic peptide … (rabies virus strain ERA); remark: listed apart in the source
[20] = molecular target: looped/cyclic peptide … (rabies virus strain ERA); remark: listed apart in the source
[21] = molecular target: looped/cyclic peptide … (rabies virus strain ERA); remark: listed apart in the source
[22] = molecular target: looped/cyclic peptide … (rabies virus strain ERA); remark: listed apart in the source
[23] = molecular target: looped/cyclic peptide … (rabies virus strain ERA); remark: listed apart in the source
[24] = molecular target: looped/cyclic peptide … (rabies virus strain ERA); remark: listed apart in the source
[25] = molecular target: looped/cyclic peptide … (rabies virus strain ERA); remark: listed apart in the source
[26] = molecular target: looped/cyclic peptide … (rabies virus strain ERA); remark: listed apart in the source
[27] = molecular target: looped/cyclic peptide … (rabies virus strain ERA); remark: listed apart in the source
[28] = molecular target: looped/cyclic peptide … (rabies virus strain ERA); remark: listed apart in the source
[29] = molecular target: looped/cyclic peptide … (rabies virus strain ERA); remark: listed apart in the source
[30] = molecular target: looped/cyclic peptide … (rabies virus strain ERA); remark: listed apart in the source
[31] = molecular target: looped/cyclic peptide … (rabies virus strain ERA); remark: listed apart in the source
[32] = molecular target: looped/cyclic peptide … (rabies virus strain ERA); remark: listed apart in the source
[33] = molecular target: looped/cyclic peptide … (rabies virus strain ERA); remark: listed apart in the source
[34] = molecular target: looped/cyclic peptide … (rabies virus strain ERA); remark: listed apart in the source
[35] = molecular target: looped/cyclic peptide … (rabies virus strain ERA); remark: listed apart in the source
[36] = molecular target: looped/cyclic peptide … (rabies virus strain ERA); remark: listed apart in the source
[37] = molecular target: looped/cyclic peptide … (rabies virus strain ERA); remark: listed apart in the source
[38] = molecular target: looped/cyclic peptide … (rabies virus strain ERA); remark: listed apart in the source
[39] = molecular target: looped/cyclic peptide … (rabies virus strain ERA); remark: listed apart in the source
[40] = molecular target: looped/cyclic peptide … (rabies virus strain ERA); remark: listed apart in the source
[41] = molecular target: looped/cyclic peptide … (rabies virus strain ERA); remark: listed apart in the source
[42] = molecular target: looped/cyclic peptide … (rabies virus strain ERA); remark: listed apart in the source
[43] = molecular target: looped/cyclic peptide … (rabies virus strain ERA); remark: listed apart in the source
[44] = molecular target: looped/cyclic peptide … (rabies virus strain ERA); remark: listed apart in the source
[45] = molecular target: looped/cyclic peptide … (rabies virus strain ERA); remark: listed apart in the source
[46] = molecular target: looped/cyclic peptide … (rabies virus strain ERA); remark: listed apart in the source
[47] = molecular target: looped/cyclic peptide … (rabies virus strain ERA); remark: listed apart in the source
[48] = molecular target: looped/cyclic peptide … (rabies virus strain ERA); remark: listed apart in the source
[49] = molecular target: looped/cyclic peptide … (rabies virus strain ERA); remark: listed apart in the source
[50] = molecular target: looped/cyclic peptide … (rabies virus strain ERA); remark: listed apart in the source
[51] = molecular target: looped/cyclic peptide … (rabies virus strain ERA); remark: listed apart in the source
[52] = molecular target: looped/cyclic peptide … (rabies virus strain ERA); remark: listed apart in the source
[53] = molecular target: looped/cyclic peptide … (rabies virus strain ERA); remark: listed apart in the source
[54] = molecular target: looped/cyclic peptide … (rabies virus strain ERA); remark: listed apart in the source
[55] = molecular target: looped/cyclic peptide … (rabies virus strain ERA); remark: listed apart in the source
[56] = molecular target: looped/cyclic peptide … (rabies virus strain ERA); remark: listed apart in the source
[57] = molecular target: looped/cyclic peptide … (rabies virus strain ERA); remark: listed apart in the source
[58] = molecular target: looped/cyclic peptide … (rabies virus strain ERA); remark: listed apart in the source
[59] = molecular target: looped/cyclic peptide … (rabies virus strain ERA); remark: listed apart in the source
[60] = molecular target: looped/cyclic peptide … (rabies virus strain ERA); remark: listed apart in the source
[61] = molecular target: looped/cyclic peptide … (rabies virus strain ERA); remark: listed apart in the source

B1: human monoclonal antibody CRJB (antibody, V domains shown)
VH: QITLKETGPTLVKPTQTLTLTCTFSGFSLSTSGVGVGWIRQPPGKALEWVTLIYWDDDKRYSPSLENRVTIRKDTSKNQVALTMTNMDPLDTGTYYCAHRQHISSFPWFDSWGQGTLVTVSS
VL: SYVLTQPPSVSVAPGKTARINCGGNNIEYRSVHWYQQKSGQAPVAVIYDNSDRPSGIPERFSGSKSGNTATLTISRVEAGDEADYYCQVWDISSDVVFGGGTKLTVLG
**Q.** How did the OD [1] turn out when B1 was run?
**A.** The OD was 93 OD.

**Q.** What about the OD [2] of the same binder?
**A.** The OD was 147 OD.

**Q.** What about the OD [3] of the same binder?
**A.** Its OD is 72 OD.

**Q.** And the OD [4]?
**A.** The OD was 76 OD.

**Q.** What about the OD [5] of the same binder?
**A.** The OD was 80 OD.

**Q.** What about the OD [6] of the same binder?
**A.** Its OD is 72 OD.

**Q.** What about the OD [7] of the same binder?
**A.** The OD was 79 OD.

**Q.** What about the OD [8] of the same binder?
**A.** The OD was 110 OD.

**Q.** And the OD [9]?
**A.** Its OD is 104 OD.

**Q.** What about the OD [10] of the same binder?
**A.** The OD was 112 OD.

**Q.** What about the OD [11] of the same binder?
**A.** The OD was 85 OD.

**Q.** What about the OD [12] of the same binder?
**A.** The OD was 71 OD.

**Q.** And the OD [13]?
**A.** The OD was 113 OD.

**Q.** What about the OD [14] of the same binder?
**A.** Its OD is 82 OD.

**Q.** And the OD [15]?
**A.** The OD was 83 OD.

**Q.** What about the OD [16] of the same binder?
**A.** The OD was 78 OD.

**Q.** And the OD [17]?
**A.** Its OD is 71 OD.

**Q.** What about the OD [18] of the same binder?
**A.** The OD was 87 OD.

**Q.** What about the OD [19] of the same binder?
**A.** The OD was 85 OD.

**Q.** And the OD [20]?
**A.** Its OD is 85 OD.

**Q.** What about the OD [21] of the same binder?
**A.** The OD was 101 OD.

**Q.** What about the OD [22] of the same binder?
**A.** The OD was 107 OD.

**Q.** And the OD [23]?
**A.** The OD was 98 OD.

**Q.** And the OD [24]?
**A.** Its OD is 103 OD.

**Q.** And the OD [25]?
**A.** Its OD is 85 OD.

**Q.** What about the OD [26] of the same binder?
**A.** Its OD is 88 OD.

**Q.** What about the OD [27] of the same binder?
**A.** The OD was 93 OD.

**Q.** And the OD [28]?
**A.** The OD was 94 OD.

**Q.** What about the OD [29] of the same binder?
**A.** Its OD is 92 OD.

**Q.** What about the OD [30] of the same binder?
**A.** Its OD is 98 OD.

**Q.** And the OD [31]?
**A.** The OD was 94 OD.

**Q.** And the OD [32]?
**A.** Its OD is 90 OD.

**Q.** What about the OD [33] of the same binder?
**A.** The OD was 83 OD.

**Q.** What about the OD [34] of the same binder?
**A.** The OD was 97 OD.

**Q.** And the OD [35]?
**A.** The OD was 58 OD.

**Q.** What about the OD [36] of the same binder?
**A.** Its OD is 86 OD.

**Q.** And the OD [37]?
**A.** Its OD is 92 OD.

**Q.** What about the OD [38] of the same binder?
**A.** The OD was 99 OD.

**Q.** And the OD [39]?
**A.** The OD was 85 OD.

**Q.** And the OD [40]?
**A.** The OD was 79 OD.

**Q.** What about the OD [41] of the same binder?
**A.** The OD was 88 OD.

**Q.** What about the OD [42] of the same binder?
**A.** The OD was 108 OD.

**Q.** What about the OD [43] of the same binder?
**A.** Its OD is 106 OD.

**Q.** What about the OD [44] of the same binder?
**A.** The OD was 93 OD.

**Q.** What about the OD [45] of the same binder?
**A.** Its OD is 100 OD.

**Q.** And the OD [46]?
**A.** The OD was 101 OD.

**Q.** And the OD [47]?
**A.** The OD was 94 OD.

**Q.** And the OD [48]?
**A.** Its OD is 90 OD.

**Q.** And the OD [49]?
**A.** The OD was 107 OD.

**Q.** What about the OD [50] of the same binder?
**A.** Its OD is 92 OD.

**Q.** And the OD [51]?
**A.** The OD was 104 OD.

**Q.** What about the OD [52] of the same binder?
**A.** Its OD is 85 OD.

**Q.** What about the OD [53] of the same binder?
**A.** Its OD is 110 OD.

**Q.** And the OD [54]?
**A.** Its OD is 104 OD.

**Q.** What about the OD [55] of the same binder?
**A.** Its OD is 129 OD.

**Q.** And the OD [56]?
**A.** The OD was 87 OD.

**Q.** What about the OD [57] of the same binder?
**A.** Its OD is 83 OD.

**Q.** And the OD [58]?
**A.** The OD was 91 OD.

**Q.** And the OD [59]?
**A.** Its OD is 93 OD.

**Q.** What about the OD [60] of the same binder?
**A.** The OD was 104 OD.

**Q.** And the OD [61]?
**A.** Its OD is 100 OD.
